The values below come from publication doi:10.1101/2022.01.19.476998 (bioRxiv, 2022).

The target in the experiment is SARS-CoV-2 Spike S1 (Omicron) (SARS-CoV-2 Omicron B.1.1.529 (BA.1), strain). The experiment is described as follows: SPR.

B1: Cilgavimab (antibody, V domains shown)
VH: EVQLVESGGGLVKPGGSLRLSCAASGFTFRDVWMSWVRQAPGKGLEWVGRIKSKIDGGTTDYAAPVKGRFTISRDDSKNTLYLQMNSLKTEDTAVYYCTTAGSYYYDTVGPGLPEGKFDYWGQGTLVTVSS
VL: not shown
In the case of B1, the binding result is “binds”.
